Read-outs that look alike come from different tables or passages of the source.

Test [1] concerns the target T1, rhNav1.7α + β1-β2-β3 (rhesus monkey).
T1 construct: also called rhNav1.7-beta1-beta2-beta3; rhesus Nav1.7α
The test is described as follows: competition FACS, CHO FlpIn cells, vs EC40 of F0103275B05(N93R).

The target in test [2] is T2, huNav1.7α + β1-β2-β3 (human, UniProt Q15858 1-1988; A5A6L6 19-218; O60939 30-215; Q2KI11 23-215).
T2 construct: Cell line (CHO FlpIn, HEK FlpIn, transient HEK293T) is named under assay; also called huNav1.7-beta1-beta2-beta3; human Nav1.7α with Navβ1, Navβ2 and Navβ3
The test is described as follows: binding FACS, CHO FlpIn cells. In outline:
(§1)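 Assessment used purified FLAG3-tagged ISVD incubated on cells for 30 minutes at 4° C in PBS containing 10% FBS and NaN₃, with cells washed between steps. Propidium iodide (1 μg/mL) staining removed dead cells from analysis.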

For test [3], the target named is T1, rhNav1.7α + β1-β2-β3. The test is described as follows: binding FACS, CHO FlpIn cells. A digest of the protocol:
as §1

The target in test [4] is T3, huNav1.7α(E281V) + β1-β2-β3 (human).
T3 construct: polyprotein as encoded; the entry already carries E281V; also called huNav1.7(E281V)-beta1-beta2-beta3
The test is described as follows: binding FACS, CHO FlpIn cells. The protocol:
(§2) Binding of the ISVDs to cell-expressed Nav1.7α was detected via murine anti-Flag (Sigma, catalog #F1804). Briefly, cells were resuspended in FACS buffer (PBS, 10% FBS, NaN₃) and transferred to a 96-well V-bottom plate at 1×10^5 cells/well. Purified FLAG3-tagged ISVD was diluted in FACS buffer and added to the cells for 30 minutes at 4° C. […] Prior to the read-out, the samples were resuspended in 1 μg/mL propidium iodide (Sigma, catalog #P4170) to exclude dead cells. Between each step, the cells were centrifuged for 5 minutes at 200 grams and washed with 100 μL/well FACS buffer.
(§3) Based on the huNav1.7α model (as described above) the following huNav1.7α-rhNav1.7α polymorphisms can be allocated to the extracellular part of DI: N146S, F276V, R277Q, E281V and V331M. The first of the residues is in DI S1-S2 whereas the latter four residues belong to DI S5-S6. FACS binding studies (as described above) were performed to stable CHO FlpIn cell lines expressing different variants of huNav1.7+β1−β2−β3 each including one of the four possible extracellular huNav1.7α-rhNav1.7α polymorphisms in the DI S5-S6 region: F276V, R277Q, E281V and V331M (Table 23 and FIGS. 22A-22F). Individual polymorphisms were each sufficient to abolish the binding of F0103265B04, F0103362B08, F010301080, and F0103262B06 to huNav1.7α, recapitulating the absence of binding on rhNav1.7α. F0103262CO2, F0103275B05 and F0103387G05 are more subtly affected in terms of EC50 or Bmax by some of the polymorphisms. None of the individual DI S5-S6 polymorphisms by themselves appear to have an impact on the binding of the two rhNav1.7α cross-reactive ISVDs F0103387G04 and F0103464B09. In addition, no effect on binding of the two ISVDs was observed (data not shown) for the three extracellular DIV VSD huNav1.7α-rhNav1.7α polymorphisms Q1530P, H1531Y and E1534D (FIG. 22G).

The target in test [5] is T4, huNav1.7α(R277Q) + β1-β2-β3 (human).
T4 construct: polyprotein as encoded; the entry already carries R277Q; also called huNav1.7(R277Q)-beta1-beta2-beta3
The test can be described thus: binding FACS, CHO FlpIn cells. The method, then:
as §2, §3

The target in test [6] is T2, huNav1.7α + β1-β2-β3. The test is described as follows: binding FACS, CHO FlpIn cells. The method, then: as §2, §3
The source holds these as a separate data set.

For test [7], the target named is T1, rhNav1.7α + β1-β2-β3. The test is described as follows: binding FACS, CHO FlpIn cells. The protocol: as §2, §3
The source holds these as a separate data set.

The target of test [8] is T5, huNav1.7α(F276V) + β1-β2-β3 (human, UniProt Q15858 1-1988; A5A6L6 19-218; O60939 30-215; Q2KI11 23-215).
T5 construct: polyprotein as encoded, P2A sites liberate the subunits; the entry already carries F276V; also called huNav1.7(F276V)-beta1-beta2-beta3
The test can be described thus: binding FACS, CHO FlpIn cells. The protocol: as §2, §3

In test [9] the target is T6, huNav1.7α(V331M) + β1-β2-β3 (human).
T6 construct: polyprotein as encoded; the entry already carries V331M; also called huNav1.7(V331M)-beta1-beta2-beta3
The test is described as follows: binding FACS, CHO FlpIn cells. The method, then: as §2, §3

Test [10] addresses T2, huNav1.7α + β1-β2-β3. The test is described as follows: competition FACS, CHO FlpIn cells, vs EC25 of F0103275B05(N93R).
The target of test [11] is T7, huNav157 chimera 14 (human).
T7 construct: Chimera without β subunits; also called Nav157ch14
The test can be described thus: binding FACS, HEK FlpIn cells.

The target in test [12] is T8, huNav157 chimera 14 + β1-β2-β3 (human).
T8 construct: Chimera of huNav1.7α (extracellular loops and transmembrane helices) and huNav1.5α (intracellular loops); also called Nav157ch14-β1-β2-β3; huNav157 chimera 14-beta1-beta2-beta3
The test is described as follows: binding FACS, HEK FlpIn cells.

Test [13] has as its target T9, huNav1.7α + β1 (human Nav1.7α co-expressed with Navβ1) (human, UniProt Q15858 1-1988; Q07699 19-218).
T9 construct: also called HEK293 human Nav1.7α + β1; HEKa/β1 Nav1.7α
The test can be described thus: binding FACS, HEKa/β1 cells.

For test [14], the target named is T10, huNav1.7α (human Nav1.7 alpha subunit, expressed without β subunits) (human, UniProt Q15858 1-1988).
T10 construct: also called HEK293 human Nav1.7α; HEKa Nav1.7α
The test is described as follows: binding FACS, HEKa cells.

Test [15] addresses T9, huNav1.7α + β1 (human Nav1.7α …). The test is described as follows: binding FACS, HEKa/β1 cells. The source holds these as a separate data set.
Test [16] concerns the target T7, huNav157 chimera 14. The test is described as follows: binding FACS, HEK FlpIn cells. This is another data set of the same source.
The target in test [17] is T11, huNav1.7α + β1-β2-β3 (human Nav1.7α co-expressed with Navβ1, Navβ2 and Navβ3) (human).
T11 construct: also called huNav1.7-beta1-beta2-beta3
The test can be described thus: binding FACS, HEK FlpIn cells.

The target in test [18] is T8, huNav157 chimera 14 + β1-β2-β3. The test is described as follows: binding FACS, HEK FlpIn cells. The source holds these as a separate data set.
Test [19] addresses T10, huNav1.7α (human Nav1.7 alpha subunit, …). The test is described as follows: binding FACS, HEKa cells. This is another data set of the same source.
The target of test [20] is T2, huNav1.7α + β1-β2-β3. The test is described as follows: competition FACS, HEK FlpIn cells, vs EC30 of CMYC3-F0103265B04. The protocol: Competition FACS assays were performed with CMYC3-tagged ISVD F0103265B04 or F0103275B05(N93R) affinity maturation variant on a HEK FlpIn huNav1.7α+β1−β2−β3 transgenic cell line. Briefly, cells were resuspended in FACS buffer (PBS, 2% FBS, 0.05% NaN₃) and 1×10⁵ cells/well were transferred to 96-well V-bottom plates. Cells were subsequently resuspended in a 100 μL mixture of purified ISVD (dilution series) and CMYC3-tagged ISVD F0103265B04 (at a concentration equivalent to EC30) followed by incubation for 1.5 hours at 4° C. […] Between each step, the cells were centrifuged for 5 minutes at 200 g and washed with 100 μL/well FACS buffer. Prior to the read-out, the samples were resuspended in 5 nM TOPRO3 (Molecular probes, catalog #T3605) to exclude dead cells. F0103262CO2, F0103262B06, F0103265A11, F0103265B04, F0103275B05, F0103362B08, and F0103387G04 all compete with F0103265B04 for binding to huNav1.7α, in contrast to an irrelevant control ISVD (IRR) (see Table 21 and FIG. 15A, FIG. 15B, FIG. 15C, and FIG. 15D).

In test [21] the target is T10, huNav1.7α (human Nav1.7 alpha subunit, …). The test is described as follows: binding FACS, huNav1.7α without β; minus = weaker than reference.
The next test deals with huNav1.7α (human, UniProt Q15858 1-1988). The test is described as follows: cell-based or functional assay.
In a further test the target is huNav1.7α + β1 (human). The test is described as follows: cell-based or functional assay.

B1: F0103464B09 (VHH)
VHH: EVQLVESGGGLVQPGGSLRLSCATTSRAFIRDVFTGWYRRVPGKERELVARIYNGGNTNYADFAKGRFSISRDNAKKMVTLRMSNLKPEDTGVYYCLFSGTINTGREYRSGDYWGQGTLVTVSS
notes: entry includes the FLAG-HIS6 tag; also called F0103464B09 (parental)-FLAG-HIS6; F103464B09
In the case of B1, the IC50 (usually the concentration that gives 50% inhibition) was 79 nM with rhNav1.7α + β1-β2-β3 [1] and 12 nM in the test with huNav1.7α + β1-β2-β3 [10]. The EC50 – broadly, the concentration at which the effect is half-maximal – in the test with huNav1.7α + β1-β2-β3 [2] was determined as 5.4 nM; with rhNav1.7α + β1-β2-β3 [3], 33 nM; in test [4], 2.7 nM; in [5], 2.6 nM; in the test with huNav1.7α + β1-β2-β3 [6], 3.4 nM; with rhNav1.7α + β1-β2-β3 [7], 31 nM. Besides, the EC50 in [8] amounted to 2.7 nM; in test [9], 1.6 nM. Further, the Bmax in the test with rhNav1.7α + β1-β2-β3 [3] is 54%.

B2: F0103387G05 (parental)-FLAG-HIS6 (VHH)
VHH: EVQLVESGGGLVQAGGSLRLSCDASGRILRIGYMRWHRQGAGKQREFVARITDDSATDYADSVKGRFTISRDNAKNTVYLQMNNLNPEDTAVYYCEALVTASVRGGSIHSGTYWGRGTLVTVSS
For B2, the EC50 with huNav157 chimera 14 [11] was 2.8 nM; in test [12] it was 3.6 nM; in test [13], 1.9 nM; in test [14], 3.1 nM; in test [15] it was 1.9 nM; in the test with huNav157 chimera 14 [16], 2.8 nM. For the same molecule, the EC50 in test [17] turned out to be 2.7 nM; in test [18], 3.6 nM; in [19] it was 3.1 nM. Also, the Bmax (in test [14]; in the test with huNav157 chimera 14 [16]) was 100% in each case.

B3: F0103387G05 (VHH)
VHH: EVQLVESGGGLVQAGGSLRLSCDASGRILRIGYMRWHRQGAGKQREFVARITDDSATDYADSVKGRFTISRDNAKNTVYLQMNNLNPEDTAVYYCEALVTASVRGGSIHSGTYWGRGTLVTVSS
notes: entry includes the FLAG-HIS6 tag; also called F0103387G05 (parental)-FLAG-HIS6
Turning to B3, the binding result in the test with rhNav1.7α + β1-β2-β3 [1] was “no binding”. The EC50 in [4] came out at 2.3 nM; in test [5] it was 2.2 nM; with huNav1.7α + β1-β2-β3 [6], 2.6 nM; in test [8], 2.4 nM; in [9], 5.9 nM. In addition, the IC50 was 9.4 nM with huNav1.7α + β1-β2-β3 [20] and 10 nM with huNav1.7α + β1-β2-β3 [10].

B4: F010301647 (VHH)
VHH: EVQLVESGGGVVQPGGSLRLSCDASGRILRIGYMRWHRQGAGKQRELVARITDDSATDYADSVKGRFTISRDNAKNTVYLQMNSLRPEDTALYYCEALVTASVRGGSIHSGTYWGQGTLVTVSS
notes: also called F0103387G05(L11V, A14P, F47L, N82bS, N83R, V89L, R105Q); F47L
Turning to B4, the EC50 in [13] came to 4 nM; in test [14], 8 nM; with huNav157 chimera 14 [16] it was 12 nM; in test [18] it was 4.7 nM. For the same molecule, the results for the Bmax (in test [14]; in the test with huNav157 chimera 14 [16]) were 75% and 80%, respectively. In [21], the “EC50 fold change compared to reference” value is -2 fold.

B5: F0103265B04-FLAG3-HIS6 (VHH)
VHH: EVQLVESGGGLVQPGGSLRLSCAAPSFIFSNNYMEWYRQAPGKQRDWVARITGRGNTNYLDSVKGRFTISRDDAKNTVYLEIDSLKPEDTAVYYCSALWYGGRAWGKGTLVTVSS
For B5, the “Qpatch IC50 [M], HEK cells” value with huNav1.7α worked out at 1.2e-07 M. Moreover, in the test with huNav1.7α + β1, the “Qpatch IC50” value turned out to be 120 nM.

For the origin of these results see patent publication US20240002497A1 (Merck Sharp & Dohme, published 2024).
